In US20240076386A1 (Pfizer, published 2024):

Columns and labels:
[1] = target: T1, mouse E-selectin extracellular domain with 10 His purification tail (mouse, UniProt Q00690 22-557); experiment: antigen binding ELISA, HRP detection
T1 construct: also called soluable mouse E-selectin extracellular domain; muE-Selctin
T1 sequence: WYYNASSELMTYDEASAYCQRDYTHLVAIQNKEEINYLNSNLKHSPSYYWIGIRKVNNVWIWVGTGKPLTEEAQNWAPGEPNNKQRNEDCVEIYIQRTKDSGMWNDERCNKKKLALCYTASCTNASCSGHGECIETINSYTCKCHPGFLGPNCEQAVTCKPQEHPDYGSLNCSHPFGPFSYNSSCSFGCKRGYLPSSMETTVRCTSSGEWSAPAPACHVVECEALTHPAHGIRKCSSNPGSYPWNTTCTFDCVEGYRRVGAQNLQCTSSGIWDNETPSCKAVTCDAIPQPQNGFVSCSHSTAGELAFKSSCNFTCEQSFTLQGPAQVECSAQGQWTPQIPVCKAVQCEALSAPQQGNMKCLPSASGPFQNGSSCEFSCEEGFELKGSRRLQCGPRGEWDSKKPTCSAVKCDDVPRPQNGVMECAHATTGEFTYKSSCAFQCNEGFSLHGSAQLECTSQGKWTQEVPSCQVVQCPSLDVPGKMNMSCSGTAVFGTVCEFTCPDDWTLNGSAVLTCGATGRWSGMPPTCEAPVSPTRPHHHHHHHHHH
Description: 384-well Maxisorp plates were used to capture the human and mouse His-tagged recombinant E-selectin polypeptides. The polypeptides were incubated with chimeric antibodies of varying concentrations and detected with HRP-labeled anti-human IgG1 antibodies.

[2] = target: T1, mouse E-selectin extracellular domain …; experiment: SPR, antibody captured, E-selectin analyte
Description: To characterize binding of antibodies to human, cynomolgus monkey, and mouse E-selectin, an antibody was diluted to 0.5 μg/mL in HBS-EP+ and captured by the anti-human IgG immobilized on flow cells 2, 3 and 4 for 30 seconds to 1 minute at a flow rate of 10 μL/minute to achieve a capture level of 70 to 300 RU. Flow cell 1 was used as a reference surface. […] HBS-EP+ buffer cycles collected for each captured antibody were used for double-referencing (Myszka D G. J. Mol. Recognition 1999; 12(5):279-84). At the end of each cycle, the entire anti-IgG surface was regenerated by a 30 second pulse of 3 M MgCl₂ and a 30 second pulse of ionic buffer (1.83 M MgCl₂, 0.92 M Urea, 1.83 M Guanidine HCl, pH 7.4) (Andersson K. Analy. Chem. 1999; 71(13): 2475-81). Kinetic assays were conducted at 25° C. at a collection rate of 10 Hertz (Hz) on a BIAcore™ T200 instrument (GE Healthcare). Rate constants and affinities were determined by fitting the data to a 1:1 binding model in BIAcore™ T200 Evaluation software version 3.0 (GE Healthcare).

[3] = target: T1, mouse E-selectin extracellular domain …; experiment: AlphaLISA competition vs sialyl Lewis A-PAA-biotin
Description: The neutralization ability of anti-E-selectin antibodies was measured in an AlphaLISA homogenous competition assay. […] This was incubated at room temperature for 15 minutes, followed by addition of 1.4 μL of human, mouse or cynomolgus monkey E-selectin added to a final concentration of 7 nM. This was again incubated at room temperature for 15 minutes. To this, 1.4 μL AlphaLISA beads was added (Ni-donor/SA-acceptor) for a final assay concentration of 10 μg/mL. This was incubated in the dark at room temperate for at least 10 hours. The plates were then read using the AlphaLISA protocol (Envision).

EC50 [1]: 0.02 nM
Kd [2]: 1.2 nM
koff [2]: 0.000231 s⁻¹
kon [2]: 192000 M⁻¹ s⁻¹
t½ [2]: 50.2 min
EC50 [3]: 1 nM
B1: anti-E-selectin antibody 0027 chimera (antibody, human IgG1, kappa, V domains shown)
VH: EVHLHQSGPELGRPGSSVKISCKASGYTFTDYVMNWVRQSPGQGLEWIGWINPEDYSFDSGEKFLERATLTAATSSNTVYIQLSGLTSDDTATYFCVRGGLPGDWFAYWGQGTLVTVSS
VL: DIQMTQSPSFLSASVGDRITINCKTSQNINRYLNWFQQKLGEPPKLLIYNANSLQADIPSRFSGSGSGTDFTLTITSLQPEDVATYFCLQHHFWPYTFGAGTKLELRR
notes: rat VH/VL on effector-null human IgG1 (L234A, L235A, G237A, EU) and human kappa; directed to mouse E-selectin
